Assays:
[1] = target: T1, Recombinant CD4 (cluster of differentiation 4) (Homo sapiens (species ), UniProt P01730); test: SPR; BIACORE T-200; CD4 amine-coupled on CM5 (9695.5 RU); nanobodies 0.4 μM flowed over, 25 °C, HBS-EP pH 7.4, contact 180 s, 30 μL/min; binding level relative to CD4 N = 1; N = 3; details: both partners purified
T1 construct: CD4, recombinant, bought from R&D Systems; No catalogue number is printed; a bought soluble CD4 is probably the extracellular domain, possibly tagged (surmise); source: bought: R&D Systems

[2] = target: T2, Recombinant GFP (green fluorescent protein) (UniProt P42212 = GFP); test: SPR; BIACORE T-200; GFP amine-coupled on CM5 (1189.8 RU); nanobodies 0.4 μM flowed over, 25 °C, HBS-EP pH 7.4, contact 180 s, 30 μL/min; binding level relative to GFP N = 1; N = 3; details: both partners purified
T2 construct: green fluorescent protein, recombinant, bought from ProSpec; No catalogue number is printed; source: bought: ProSpec

Row | relative binding response (CD4N to CD4 = 1) [1] | binding result [2] | Binder
1 | 0.096 | – | chimeric nanobody in which all CDRs of GFP-nanobody had been replaced with those of CD4-nanobody (VHH, scaffold before CDR1, as in the VHH of m1; CDR1, as in the VHH of m2; scaffold between CDR1 and CDR2, as in the VHH of m1; CDR2, as in the VHH of m2; scaffold between CDR2 and CDR3, as in the VHH of m1; CDR3, as in the VHH of m2; scaffold after CDR3, as in the VHH of m1; not shown: long peptide tag containing two FLAG-tags, C-terminal, kept) VHH: QVQLVESGGALVQPGGSLRLSCAASGRTFNVMRWYRQAPGKEREWVAAVRWSSTGIYYTQYADSVKGRFTISRDDARNTVYLQMNSLKPEDTAVYYCAADTYNSNPARWDGYDFRGQGTQVTVSS
2 | 0.1 | no binding (tested: 0.4 μM) | chimeric nanobody with CDR3 of GFP-nanobody replaced with that of CD4-nanobody (VHH, everything before CDR3 (scaffold, CDR1, CDR2), as in the VHH of m1; CDR3, as in the VHH of m2; scaffold after CDR3, as in the VHH of m1; also called cCD4 CDR3; not shown: long peptide tag containing two FLAG-tags, C-terminal, kept) VHH: QVQLVESGGALVQPGGSLRLSCAASGFPVNRYSMRWYRQAPGKEREWVAGMSSAGDRSSYEDSVKGRFTISRDDARNTVYLQMNSLKPEDTAVYYCAADTYNSNPARWDGYDFRGQGTQVTVSS
3 | 0.091 | – | chimeric nanobody with CDR2 of GFP-nanobody replaced with that of CD4-nanobody (VHH, everything before CDR2 (scaffold, CDR1), as in the VHH of m1; CDR2, as in the VHH of m2; everything after CDR2 (scaffold, CDR3), as in the VHH of m1; also called cCD4 CDR2; not shown: long peptide tag containing two FLAG-tags, C-terminal, kept) VHH: QVQLVESGGALVQPGGSLRLSCAASGFPVNRYSMRWYRQAPGKEREWVAAVRWSSTGIYYTQYADSVKGRFTISRDDARNTVYLQMNSLKPEDTAVYYCNVNVGFEYWGQGTQVTVSS
